How the values were obtained:
[1] = mCherry fluorescence in media, 32 h time course; conditions: glycan lost; control: wild type
[2] = Western blot of cell lysate; conditions: glycan lost; control: wild type
[3] = fluorogenic substrate assay on cell lysate; conditions: glycan lost; control: wild type
[4] = mCherry co-localisation with organelle-targeted eGFP; conditions: glycan lost; control: wild type
[5] = Western blot of culture media, 24 h; conditions: glycan lost; control: wild type
[6] = Western blot of media, transfected HEK293; conditions: control: untreated
[7] = mCherry fluorescence in media, 24 h, N38X series; conditions: glycan lost; control: wild type
[8] = hMMP-9-mCherry fluorescence microscopy; conditions: glycan lost; control: untreated

B1: human matrix metalloproteinase 9 (hMMP-9): N120S (protein)
parent chain: MSLWQPLVLVLLVLGCCFAAPRQRQSTLVLFPGDLRTNLTDRQLAEEYLYRYGYTRVAEMRGESKSLGPALLLLQKQLSLPETGELDSATLKAMRTPRCGVPDLGRFQTFEGDLKWHHHNITYWIQNYSEDLPRAVIDDAFARAFALWSAVTPLTFTRVYSRDADIVIQFGVAEHGDGYPFDGKDGLLAHAFPPGPGIQGDAHFDDDELWSLGKGVVVPTRFGNADGAACHFPFIFEGRSYSACTTDGRSDGLPWCSTTANYDTDDRFGFCPSERLYTQDGNADGKPCQFPFIFQGQSYSACTTDGRSDGYRWCATTANYDRDKLFGFCPTRADSTVMGGNSAGELCVFPFTFLGKEYSTCTSEGRGDGRLWCATTSNFDSDKKWGFCPDQGYSLFLVAAHEFGHALGLDHSSVPEALMYPMYRFTEGPPLHKDDVNGIRHLYGPRPEPEPRPPTTTTPQPTAPPTVCPTGPPTVHPSERPTAGPTGPPSAGPTGPPTAGPSTATTVPLSPVDDACNVNIFDAIAEIGNQLYLFKDGKYWRFSEGRGSRPQGPFLIADKWPALPRKLDSVFEERLSKKLFFFSGRQVWVYTGASVLGPRRLDKLGLGADVAQVTGALRSGRGKMLLFSGRRLWRFDVKAQMVDPRSASEVDRMFPGVPLDTHDVFQYREKAYFCQDRFYWRVSSRSELNQVDQVGYVTYDILQCPED
For B1, which “expression_or_secretion, fold_change” value [1] is on record?
Its value is “decreases”.

And the expression_or_secretion [2]?
The expression_or_secretion was “no change”.

And the enzymatic_activity [3]?
The enzymatic_activity was “decreases”.

And the localisation_or_trafficking [4]?
Its localisation_or_trafficking is “changes”.

And the expression_or_secretion [5]?
Its expression_or_secretion is “decreases”.

B2: human matrix metalloproteinase 9 (hMMP-9): tunicamycin (protein)
parent chain: MSLWQPLVLVLLVLGCCFAAPRQRQSTLVLFPGDLRTNLTDRQLAEEYLYRYGYTRVAEMRGESKSLGPALLLLQKQLSLPETGELDSATLKAMRTPRCGVPDLGRFQTFEGDLKWHHHNITYWIQNYSEDLPRAVIDDAFARAFALWSAVTPLTFTRVYSRDADIVIQFGVAEHGDGYPFDGKDGLLAHAFPPGPGIQGDAHFDDDELWSLGKGVVVPTRFGNADGAACHFPFIFEGRSYSACTTDGRSDGLPWCSTTANYDTDDRFGFCPSERLYTQDGNADGKPCQFPFIFQGQSYSACTTDGRSDGYRWCATTANYDRDKLFGFCPTRADSTVMGGNSAGELCVFPFTFLGKEYSTCTSEGRGDGRLWCATTSNFDSDKKWGFCPDQGYSLFLVAAHEFGHALGLDHSSVPEALMYPMYRFTEGPPLHKDDVNGIRHLYGPRPEPEPRPPTTTTPQPTAPPTVCPTGPPTVHPSERPTAGPTGPPSAGPTGPPTAGPSTATTVPLSPVDDACNVNIFDAIAEIGNQLYLFKDGKYWRFSEGRGSRPQGPFLIADKWPALPRKLDSVFEERLSKKLFFFSGRQVWVYTGASVLGPRRLDKLGLGADVAQVTGALRSGRGKMLLFSGRRLWRFDVKAQMVDPRSASEVDRMFPGVPLDTHDVFQYREKAYFCQDRFYWRVSSRSELNQVDQVGYVTYDILQCPED
For B2, which expression_or_secretion ([6]; glycan lost) is on record?
Its expression_or_secretion is “decreases”.

B3: human matrix metalloproteinase 9 (hMMP-9): N38P (protein)
parent chain: MSLWQPLVLVLLVLGCCFAAPRQRQSTLVLFPGDLRTNLTDRQLAEEYLYRYGYTRVAEMRGESKSLGPALLLLQKQLSLPETGELDSATLKAMRTPRCGVPDLGRFQTFEGDLKWHHHNITYWIQNYSEDLPRAVIDDAFARAFALWSAVTPLTFTRVYSRDADIVIQFGVAEHGDGYPFDGKDGLLAHAFPPGPGIQGDAHFDDDELWSLGKGVVVPTRFGNADGAACHFPFIFEGRSYSACTTDGRSDGLPWCSTTANYDTDDRFGFCPSERLYTQDGNADGKPCQFPFIFQGQSYSACTTDGRSDGYRWCATTANYDRDKLFGFCPTRADSTVMGGNSAGELCVFPFTFLGKEYSTCTSEGRGDGRLWCATTSNFDSDKKWGFCPDQGYSLFLVAAHEFGHALGLDHSSVPEALMYPMYRFTEGPPLHKDDVNGIRHLYGPRPEPEPRPPTTTTPQPTAPPTVCPTGPPTVHPSERPTAGPTGPPSAGPTGPPTAGPSTATTVPLSPVDDACNVNIFDAIAEIGNQLYLFKDGKYWRFSEGRGSRPQGPFLIADKWPALPRKLDSVFEERLSKKLFFFSGRQVWVYTGASVLGPRRLDKLGLGADVAQVTGALRSGRGKMLLFSGRRLWRFDVKAQMVDPRSASEVDRMFPGVPLDTHDVFQYREKAYFCQDRFYWRVSSRSELNQVDQVGYVTYDILQCPED
With B3 as the protein, how does the expression_or_secretion [7] read?
The expression_or_secretion was “no change”.

B4: human matrix metalloproteinase 9 (hMMP-9): castanospermine (CST) (protein)
parent chain: MSLWQPLVLVLLVLGCCFAAPRQRQSTLVLFPGDLRTNLTDRQLAEEYLYRYGYTRVAEMRGESKSLGPALLLLQKQLSLPETGELDSATLKAMRTPRCGVPDLGRFQTFEGDLKWHHHNITYWIQNYSEDLPRAVIDDAFARAFALWSAVTPLTFTRVYSRDADIVIQFGVAEHGDGYPFDGKDGLLAHAFPPGPGIQGDAHFDDDELWSLGKGVVVPTRFGNADGAACHFPFIFEGRSYSACTTDGRSDGLPWCSTTANYDTDDRFGFCPSERLYTQDGNADGKPCQFPFIFQGQSYSACTTDGRSDGYRWCATTANYDRDKLFGFCPTRADSTVMGGNSAGELCVFPFTFLGKEYSTCTSEGRGDGRLWCATTSNFDSDKKWGFCPDQGYSLFLVAAHEFGHALGLDHSSVPEALMYPMYRFTEGPPLHKDDVNGIRHLYGPRPEPEPRPPTTTTPQPTAPPTVCPTGPPTVHPSERPTAGPTGPPSAGPTGPPTAGPSTATTVPLSPVDDACNVNIFDAIAEIGNQLYLFKDGKYWRFSEGRGSRPQGPFLIADKWPALPRKLDSVFEERLSKKLFFFSGRQVWVYTGASVLGPRRLDKLGLGADVAQVTGALRSGRGKMLLFSGRRLWRFDVKAQMVDPRSASEVDRMFPGVPLDTHDVFQYREKAYFCQDRFYWRVSSRSELNQVDQVGYVTYDILQCPED
For B4, which expression_or_secretion ([6]; glycan changed form) is on record?
Its expression_or_secretion is “decreases”.

B5: human matrix metalloproteinase 9 (hMMP-9): N38G (protein)
parent chain: MSLWQPLVLVLLVLGCCFAAPRQRQSTLVLFPGDLRTNLTDRQLAEEYLYRYGYTRVAEMRGESKSLGPALLLLQKQLSLPETGELDSATLKAMRTPRCGVPDLGRFQTFEGDLKWHHHNITYWIQNYSEDLPRAVIDDAFARAFALWSAVTPLTFTRVYSRDADIVIQFGVAEHGDGYPFDGKDGLLAHAFPPGPGIQGDAHFDDDELWSLGKGVVVPTRFGNADGAACHFPFIFEGRSYSACTTDGRSDGLPWCSTTANYDTDDRFGFCPSERLYTQDGNADGKPCQFPFIFQGQSYSACTTDGRSDGYRWCATTANYDRDKLFGFCPTRADSTVMGGNSAGELCVFPFTFLGKEYSTCTSEGRGDGRLWCATTSNFDSDKKWGFCPDQGYSLFLVAAHEFGHALGLDHSSVPEALMYPMYRFTEGPPLHKDDVNGIRHLYGPRPEPEPRPPTTTTPQPTAPPTVCPTGPPTVHPSERPTAGPTGPPSAGPTGPPTAGPSTATTVPLSPVDDACNVNIFDAIAEIGNQLYLFKDGKYWRFSEGRGSRPQGPFLIADKWPALPRKLDSVFEERLSKKLFFFSGRQVWVYTGASVLGPRRLDKLGLGADVAQVTGALRSGRGKMLLFSGRRLWRFDVKAQMVDPRSASEVDRMFPGVPLDTHDVFQYREKAYFCQDRFYWRVSSRSELNQVDQVGYVTYDILQCPED
With B5 as the protein, how does the expression_or_secretion [7] read?
Its expression_or_secretion is “no change”.

B6: human matrix metalloproteinase 9 (hMMP-9): tunicamycin (250 ng/ml) (protein)
parent chain: MSLWQPLVLVLLVLGCCFAAPRQRQSTLVLFPGDLRTNLTDRQLAEEYLYRYGYTRVAEMRGESKSLGPALLLLQKQLSLPETGELDSATLKAMRTPRCGVPDLGRFQTFEGDLKWHHHNITYWIQNYSEDLPRAVIDDAFARAFALWSAVTPLTFTRVYSRDADIVIQFGVAEHGDGYPFDGKDGLLAHAFPPGPGIQGDAHFDDDELWSLGKGVVVPTRFGNADGAACHFPFIFEGRSYSACTTDGRSDGLPWCSTTANYDTDDRFGFCPSERLYTQDGNADGKPCQFPFIFQGQSYSACTTDGRSDGYRWCATTANYDRDKLFGFCPTRADSTVMGGNSAGELCVFPFTFLGKEYSTCTSEGRGDGRLWCATTSNFDSDKKWGFCPDQGYSLFLVAAHEFGHALGLDHSSVPEALMYPMYRFTEGPPLHKDDVNGIRHLYGPRPEPEPRPPTTTTPQPTAPPTVCPTGPPTVHPSERPTAGPTGPPSAGPTGPPTAGPSTATTVPLSPVDDACNVNIFDAIAEIGNQLYLFKDGKYWRFSEGRGSRPQGPFLIADKWPALPRKLDSVFEERLSKKLFFFSGRQVWVYTGASVLGPRRLDKLGLGADVAQVTGALRSGRGKMLLFSGRRLWRFDVKAQMVDPRSASEVDRMFPGVPLDTHDVFQYREKAYFCQDRFYWRVSSRSELNQVDQVGYVTYDILQCPED
With B6 as the protein, how does the localisation_or_trafficking [8] read?
Its localisation_or_trafficking is “changes”.

B7: human matrix metalloproteinase 9 (hMMP-9): N38E (protein)
parent chain: MSLWQPLVLVLLVLGCCFAAPRQRQSTLVLFPGDLRTNLTDRQLAEEYLYRYGYTRVAEMRGESKSLGPALLLLQKQLSLPETGELDSATLKAMRTPRCGVPDLGRFQTFEGDLKWHHHNITYWIQNYSEDLPRAVIDDAFARAFALWSAVTPLTFTRVYSRDADIVIQFGVAEHGDGYPFDGKDGLLAHAFPPGPGIQGDAHFDDDELWSLGKGVVVPTRFGNADGAACHFPFIFEGRSYSACTTDGRSDGLPWCSTTANYDTDDRFGFCPSERLYTQDGNADGKPCQFPFIFQGQSYSACTTDGRSDGYRWCATTANYDRDKLFGFCPTRADSTVMGGNSAGELCVFPFTFLGKEYSTCTSEGRGDGRLWCATTSNFDSDKKWGFCPDQGYSLFLVAAHEFGHALGLDHSSVPEALMYPMYRFTEGPPLHKDDVNGIRHLYGPRPEPEPRPPTTTTPQPTAPPTVCPTGPPTVHPSERPTAGPTGPPSAGPTGPPTAGPSTATTVPLSPVDDACNVNIFDAIAEIGNQLYLFKDGKYWRFSEGRGSRPQGPFLIADKWPALPRKLDSVFEERLSKKLFFFSGRQVWVYTGASVLGPRRLDKLGLGADVAQVTGALRSGRGKMLLFSGRRLWRFDVKAQMVDPRSASEVDRMFPGVPLDTHDVFQYREKAYFCQDRFYWRVSSRSELNQVDQVGYVTYDILQCPED
Which expression_or_secretion [7] does the source give for B7 here?
Its expression_or_secretion is “no change”.

B8: human matrix metalloproteinase 9 (hMMP-9): mS38/ N120S (protein)
parent chain: MSLWQPLVLVLLVLGCCFAAPRQRQSTLVLFPGDLRTNLTDRQLAEEYLYRYGYTRVAEMRGESKSLGPALLLLQKQLSLPETGELDSATLKAMRTPRCGVPDLGRFQTFEGDLKWHHHNITYWIQNYSEDLPRAVIDDAFARAFALWSAVTPLTFTRVYSRDADIVIQFGVAEHGDGYPFDGKDGLLAHAFPPGPGIQGDAHFDDDELWSLGKGVVVPTRFGNADGAACHFPFIFEGRSYSACTTDGRSDGLPWCSTTANYDTDDRFGFCPSERLYTQDGNADGKPCQFPFIFQGQSYSACTTDGRSDGYRWCATTANYDRDKLFGFCPTRADSTVMGGNSAGELCVFPFTFLGKEYSTCTSEGRGDGRLWCATTSNFDSDKKWGFCPDQGYSLFLVAAHEFGHALGLDHSSVPEALMYPMYRFTEGPPLHKDDVNGIRHLYGPRPEPEPRPPTTTTPQPTAPPTVCPTGPPTVHPSERPTAGPTGPPSAGPTGPPTAGPSTATTVPLSPVDDACNVNIFDAIAEIGNQLYLFKDGKYWRFSEGRGSRPQGPFLIADKWPALPRKLDSVFEERLSKKLFFFSGRQVWVYTGASVLGPRRLDKLGLGADVAQVTGALRSGRGKMLLFSGRRLWRFDVKAQMVDPRSASEVDRMFPGVPLDTHDVFQYREKAYFCQDRFYWRVSSRSELNQVDQVGYVTYDILQCPED
With B8 as the protein, how does the “expression_or_secretion, fold_change” value [1] read?
Its value is “decreases”.

And the expression_or_secretion [2]?
Its expression_or_secretion is “no change”.

What about the enzymatic_activity [3] of the same protein?
Its enzymatic_activity is “decreases”.

What about the localisation_or_trafficking [4] of the same protein?
Its localisation_or_trafficking is “changes”.

And the expression_or_secretion [5]?
Its expression_or_secretion is “abolishes”.

Reference: article PMC4774645
